Data as given in PMC11218372.

Experiments:
[1] = target: CA7-PabCA, carbonic anhydrase from Pyrococcus abyssi (Py. abyssi); experiment: SDS-PAGE; SEC fractions of the purified CA (Cobalt His-Pur, Superdex 75), NuPAGE 4-12% Bis-Tris gel
[2] = target: CA7-PabCA, carbonic anhydrase from Pyrococcus abyssi (Py. abyssi); experiment: SDS-PAGE; cell lysates of E. coli overexpressing the CA, NuPAGE 4-12% Bis-Tris gel in MES buffer; CA7 expressed without additional Zn, CA8 with 0.5 mM ZnSO4
[3] = target: CA8-PhoCA, carbonic anhydrase from Pyrococcus horikoshii (Py. horikoshii); experiment: SDS-PAGE; SEC fractions of the purified CA (Cobalt His-Pur, Superdex 75), NuPAGE 4-12% Bis-Tris gel
[4] = target: CA8-PhoCA, carbonic anhydrase from Pyrococcus horikoshii (Py. horikoshii); experiment: SDS-PAGE; cell lysates of E. coli overexpressing the CA, NuPAGE 4-12% Bis-Tris gel in MES buffer; CA7 expressed without additional Zn, CA8 with 0.5 mM ZnSO4

Substance	stoichiometry N [1]	stoichiometry N [2]	stoichiometry N [3]	stoichiometry N [4]
CA7-PabCA, carbonic anhydrase from Pyrococcus abyssi (enzyme)	3	3		
CA8-PhoCA, carbonic anhydrase from Pyrococcus horikoshii (enzyme)			3	3
